From PMC3000357 (PLoS Genetics, 2010)

Columns and labels:
RecS, purified = molecular target: T1, RecS, purified (Bacillus subtilis, UniProt P50729 1-496); assay: SEC; purified RecS (4 µM) or YpbB/RecS (4 µM) mixed on ice with SSB (16 µM or 40 µM, as monomers) and loaded onto a gel-filtration column; fractions on SDS-PAGE, Coomassie; settings: both partners purified
T1 construct: RecS (also annotated YpbC), RecQ paralogue of Bacillus subtilis; theoretical mass 57 kDa; also called YpbC; source: E. coli, purified (procedure in Text S1)
T1 sequence (looked up): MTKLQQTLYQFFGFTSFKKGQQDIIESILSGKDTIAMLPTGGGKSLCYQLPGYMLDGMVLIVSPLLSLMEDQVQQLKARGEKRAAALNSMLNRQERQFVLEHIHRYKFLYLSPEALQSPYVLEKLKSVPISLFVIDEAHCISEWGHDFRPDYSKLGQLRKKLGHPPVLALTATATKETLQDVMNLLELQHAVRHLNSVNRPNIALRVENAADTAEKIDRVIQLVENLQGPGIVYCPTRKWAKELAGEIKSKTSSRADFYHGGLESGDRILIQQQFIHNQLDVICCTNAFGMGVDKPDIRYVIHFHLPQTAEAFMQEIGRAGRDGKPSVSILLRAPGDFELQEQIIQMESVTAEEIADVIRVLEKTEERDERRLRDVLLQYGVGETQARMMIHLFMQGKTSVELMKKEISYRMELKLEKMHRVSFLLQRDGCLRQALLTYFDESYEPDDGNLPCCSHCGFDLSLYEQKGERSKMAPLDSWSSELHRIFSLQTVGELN

SSBΔ35 = molecular target: T2, SSBΔ35 (Bacillus subtilis, UniProt P37455 1-137); assay: pull-down on ssDNA magnetic beads; 20 mM Tris-HCl pH 7.5, 200 mM NaCl, 20 °C, 800 rpm; beads washed in same buffer; settings: protein: recombinant; chain copies: 4; label: 5' biotin, on streptavidin magnetic beads; single strand
T2 sequence: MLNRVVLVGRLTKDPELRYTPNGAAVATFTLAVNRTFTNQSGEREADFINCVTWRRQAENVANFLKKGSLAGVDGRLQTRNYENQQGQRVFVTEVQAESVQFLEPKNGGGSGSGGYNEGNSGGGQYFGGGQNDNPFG

SSBΔ6 = molecular target: T3, SSBΔ6 (Bacillus subtilis, UniProt P37455 1-166); assay: pull-down on ssDNA magnetic beads; 50 pmol oligo, 80 pmol SSBΔ6; 20 mM Tris-HCl pH 7.5, 200 mM NaCl, 20 °C, 800 rpm; beads washed in same buffer; settings: protein: recombinant; chain copies: 4; label: 5' biotin, on streptavidin magnetic beads; single strand
T3 sequence: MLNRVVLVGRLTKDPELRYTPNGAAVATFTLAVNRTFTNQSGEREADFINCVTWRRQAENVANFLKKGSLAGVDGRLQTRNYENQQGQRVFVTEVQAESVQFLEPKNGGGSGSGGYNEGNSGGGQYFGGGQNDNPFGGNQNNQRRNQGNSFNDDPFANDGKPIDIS

SSB = molecular target: T4, SSB (Bacillus subtilis, UniProt P37455 1-172); assay: pull-down on ssDNA magnetic beads; 50 pmol oligo, 80 pmol SSB; 20 mM Tris-HCl pH 7.5, 200 mM NaCl, 20 °C, 800 rpm; beads washed in same buffer; settings: protein: recombinant; chain copies: 4; label: 5' biotin, on streptavidin magnetic beads; single strand
T4 sequence: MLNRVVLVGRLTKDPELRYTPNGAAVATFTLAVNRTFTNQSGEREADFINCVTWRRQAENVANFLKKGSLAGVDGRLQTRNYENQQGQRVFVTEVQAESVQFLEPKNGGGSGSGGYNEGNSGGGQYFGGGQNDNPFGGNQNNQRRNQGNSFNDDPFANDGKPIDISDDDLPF

[1] = molecular target: T5, YpbB/RecS complex, purified (Bacillus subtilis, UniProt P50728 1-352; P50729 1-496); assay: SEC; purified RecS (4 µM) or YpbB/RecS (4 µM) mixed on ice with SSB (16 µM or 40 µM, as monomers) and loaded onto a gel-filtration column; fractions on SDS-PAGE, Coomassie; settings: both partners purified
T5 construct: YpbB of Bacillus subtilis; RecS (YpbC) of Bacillus subtilis; Equivalent amounts of YpbB and RecS appear to be present in the complex
T5 sequence (looked up) 1: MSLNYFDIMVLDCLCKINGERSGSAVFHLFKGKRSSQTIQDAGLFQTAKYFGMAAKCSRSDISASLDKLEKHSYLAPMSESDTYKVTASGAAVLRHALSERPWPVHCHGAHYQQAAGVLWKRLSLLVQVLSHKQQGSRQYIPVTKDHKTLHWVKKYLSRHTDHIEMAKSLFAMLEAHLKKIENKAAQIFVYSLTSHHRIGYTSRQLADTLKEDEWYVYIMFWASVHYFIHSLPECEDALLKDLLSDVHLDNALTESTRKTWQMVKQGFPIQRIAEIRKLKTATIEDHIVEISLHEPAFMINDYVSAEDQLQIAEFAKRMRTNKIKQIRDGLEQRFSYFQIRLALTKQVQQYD
T5 sequence (looked up) 2: T1 sequence (looked up)

PriA, purified = molecular target: T6, PriA, purified (Bacillus subtilis, UniProt P94461 1-805); assay: pull-down; streptavidin magnetic beads with a biotinylated 65-mer ssDNA coated by purified SSB or SSBΔ6 (80 pmol of tetramer; SSBΔ35: 100 pmol of tetramer, 60 pmol of tested protein); purified protein added in 20 mM Tris-HCl pH 7.5, 200 mM NaCl, 30 min, 20°C; SDS-PAGE, Coomassie; settings: both partners purified
T6 construct: PriA, primary replication restart protein (DNA helicase) of Bacillus subtilis; source: E. coli, purified (procedure in Text S1)
T6 sequence (looked up): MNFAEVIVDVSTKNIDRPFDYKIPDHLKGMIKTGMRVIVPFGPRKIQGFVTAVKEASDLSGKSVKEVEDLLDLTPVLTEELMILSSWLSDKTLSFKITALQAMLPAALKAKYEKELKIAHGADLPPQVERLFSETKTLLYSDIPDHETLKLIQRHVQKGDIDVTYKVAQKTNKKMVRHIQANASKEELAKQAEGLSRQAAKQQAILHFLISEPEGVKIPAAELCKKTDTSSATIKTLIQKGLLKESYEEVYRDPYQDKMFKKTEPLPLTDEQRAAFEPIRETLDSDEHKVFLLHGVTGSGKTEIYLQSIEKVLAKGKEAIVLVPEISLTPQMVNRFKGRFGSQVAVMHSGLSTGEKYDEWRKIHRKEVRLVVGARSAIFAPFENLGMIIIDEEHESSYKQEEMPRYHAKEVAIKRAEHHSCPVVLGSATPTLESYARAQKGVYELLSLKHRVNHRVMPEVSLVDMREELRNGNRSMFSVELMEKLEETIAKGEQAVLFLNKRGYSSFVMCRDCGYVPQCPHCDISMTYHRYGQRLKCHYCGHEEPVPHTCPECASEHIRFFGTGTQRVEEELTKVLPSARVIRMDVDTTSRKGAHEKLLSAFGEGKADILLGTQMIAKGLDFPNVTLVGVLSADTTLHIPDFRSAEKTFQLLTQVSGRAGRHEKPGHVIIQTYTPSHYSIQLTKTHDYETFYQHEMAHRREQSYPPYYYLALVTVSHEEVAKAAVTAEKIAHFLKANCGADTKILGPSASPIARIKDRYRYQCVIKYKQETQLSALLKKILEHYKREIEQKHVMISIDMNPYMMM

RecG, purified = molecular target: T7, RecG, purified (Bacillus subtilis, UniProt O34942 1-682); assay: as above; settings: both partners purified
T7 construct: RecG DNA helicase of Bacillus subtilis; source: E. coli, purified (procedure in Text S1)
T7 sequence (looked up): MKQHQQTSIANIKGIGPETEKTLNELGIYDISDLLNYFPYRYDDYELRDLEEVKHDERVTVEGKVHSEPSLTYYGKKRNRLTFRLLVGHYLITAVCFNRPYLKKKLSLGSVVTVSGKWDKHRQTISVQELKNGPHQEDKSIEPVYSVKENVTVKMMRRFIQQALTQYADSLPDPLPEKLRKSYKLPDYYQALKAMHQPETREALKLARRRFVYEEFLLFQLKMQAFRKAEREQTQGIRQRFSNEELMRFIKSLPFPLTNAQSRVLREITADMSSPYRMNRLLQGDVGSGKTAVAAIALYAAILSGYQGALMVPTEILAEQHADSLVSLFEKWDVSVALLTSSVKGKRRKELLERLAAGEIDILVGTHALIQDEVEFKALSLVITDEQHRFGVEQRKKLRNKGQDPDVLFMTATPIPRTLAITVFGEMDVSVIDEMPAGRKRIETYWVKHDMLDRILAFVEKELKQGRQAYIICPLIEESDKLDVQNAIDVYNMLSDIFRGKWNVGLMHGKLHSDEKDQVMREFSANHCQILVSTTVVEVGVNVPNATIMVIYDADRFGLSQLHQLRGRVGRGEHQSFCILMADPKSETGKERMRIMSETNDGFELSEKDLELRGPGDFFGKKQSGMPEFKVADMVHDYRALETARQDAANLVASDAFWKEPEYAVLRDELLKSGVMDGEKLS

RecO, purified = molecular target: T8, RecO, purified (Bacillus subtilis, UniProt P42095 1-255); assay: as above; settings: both partners purified
T8 construct: RecO recombination mediator protein of Bacillus subtilis; source: E. coli, purified (procedure in Text S1)
T8 sequence (looked up): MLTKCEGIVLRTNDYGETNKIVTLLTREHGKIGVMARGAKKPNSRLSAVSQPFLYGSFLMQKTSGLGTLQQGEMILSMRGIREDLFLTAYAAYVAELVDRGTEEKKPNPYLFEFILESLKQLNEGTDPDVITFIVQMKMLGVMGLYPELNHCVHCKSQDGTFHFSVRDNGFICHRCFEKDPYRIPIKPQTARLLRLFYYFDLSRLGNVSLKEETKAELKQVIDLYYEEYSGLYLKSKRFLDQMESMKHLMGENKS

RecQ, purified = molecular target: T9, RecQ, purified (Bacillus subtilis, UniProt O34748 1-591); assay: as above; settings: both partners purified
T9 construct: RecQ DNA helicase (initially annotated YocI) of Bacillus subtilis; also called YocI; source: E. coli, purified (procedure in Text S1)
T9 sequence (looked up): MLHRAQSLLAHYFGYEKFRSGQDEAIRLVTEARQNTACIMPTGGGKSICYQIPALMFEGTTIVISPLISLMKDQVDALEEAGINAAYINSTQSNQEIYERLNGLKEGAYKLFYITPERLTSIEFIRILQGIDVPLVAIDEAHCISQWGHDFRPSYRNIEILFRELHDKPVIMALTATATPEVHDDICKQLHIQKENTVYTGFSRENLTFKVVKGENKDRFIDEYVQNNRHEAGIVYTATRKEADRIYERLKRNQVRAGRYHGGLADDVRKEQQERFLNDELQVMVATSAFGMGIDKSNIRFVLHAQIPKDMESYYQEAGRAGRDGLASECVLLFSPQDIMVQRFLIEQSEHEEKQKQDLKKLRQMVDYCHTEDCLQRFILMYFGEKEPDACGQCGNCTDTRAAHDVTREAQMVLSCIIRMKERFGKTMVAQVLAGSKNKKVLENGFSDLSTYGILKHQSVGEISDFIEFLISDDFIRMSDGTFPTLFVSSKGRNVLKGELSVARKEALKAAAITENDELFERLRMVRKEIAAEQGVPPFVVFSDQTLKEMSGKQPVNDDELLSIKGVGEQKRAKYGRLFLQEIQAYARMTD

Measured: binding result

B1: YpbB, produced in E. coli with RecS (natural protein, Bacillus subtilis, UniProt P50728 1-352, looked up)
chain: T5 sequence (looked up) 1
notes: YpbB, protein of unknown function of Bacillus subtilis, encoded immediately upstream of recS; Could not be prepared as a soluble protein alone; source: E. coli, purified only as a complex with RecS (procedure in Text S1)
binds: RecS, purified

B2: 65-mer biotinylated ssDNA oligonucleotide (ssDNA)
DNA: CGTCGTTTTACAACGTCGTGACTGGGAAAACCCTGGCGTTACCCAACTTAATCGCCTTGCAGCA
modifications: biotin-TEG
binds: SSBΔ35 | SSBΔ6 | SSB

B3: Bacillus subtilis Single-Stranded DNA Binding protein (SSB), purified (natural protein, UniProt P37455 1-172, looked up)
chain: T4 sequence
notes: Used as a tetramer; source: E. coli, purified (procedure in Text S1)
binds: [1] | PriA, purified | RecG, purified | RecO, purified | RecQ, purified
